Protein production data for 19 sequences are collected here from a protein production outcome set (Wang et al. 2014).

A short description of this data set: label from the status in PepcDB records.
For the sequence “KVWKPGDECFALYWEDNKFYRAEVEALHSSGMTAVVKFTDYGNYEEVLLSNIKPVQTEAWVRDPN”, the protein production result is given as “not failed”.

For the sequence “MRNLKLRYCKELNAVAHPQHLLLQPELNGGASDIYFVVADNKIYAVQESGDVRLKVIADLPDIVGVEFLQLDNAICVASGAGEVILVDPQTGATSEGTFCDVGIESMAWSPNQEVVAFVTRTHNVVLMTSTFDVIAEQPLDAELDPDQQFVNVGWGKKETQFHGSEGKQAAKQKESDSTFIRDEQELNQDVSISWRGDGEFFVVSYVAAQLGRTFKVYDSEGKLNHTAEKSANLKDSVVWRPTGNWIAVPQQFPNKSTIALFEKNGLRHRELVLPFDLQEEPVVQLRWSEDSDILAIRTCAKEEQRVYLYTIGNYHWYLKQVLIFEQADPLALLHWDTRCGAEHTLHVLKESGKHLVYRWAFAVDRNNSIVGVIDGKRLLLTDFDEAIVPPPMSKIVLKFETYINAFISHGTSLWVYTCDRKIYLNEHIHTLGKELQKPIMLMPDAELSGLHLANLTHFSPHYLLATHSSAGSTRLLLLSYKDNDNKPGEWFYRVHSSVRINGLVNAVAVAPYAMNEFYVQTVNNGHTYEVSLKADKTLKVERSYVQLHEPADQIDWVIVKGCIWDGYTGALVTLRNQHLLHIDGYRIGEDVTSFCVVTNYLVYTQLNAMHFVQLDDRRQVASRNIERGAKIVTAVARKARVVLQLPRGNLEAICPRVLVLELVGDLLERGKYQKAIEMSRKQRINLNIIFDHDVKRFVSSVGAFLNDINEPQWLCLFLSELQNEDFTKGMYSSNYDASKQTYPSDYRVDQKVEYVCRLLEQQMNRFVSRFRLPLITAYVKLGCLEMALQVIWKEQQEDASLADQLLQHLLYLVDVNDLYNVALGTYDFGLVLFVAQKSQKDPKEFLPYLNDLKALPIDYRKFRIDDHLKRYTSALSHLAACGEQHYEEALEYIRKHGLYTDGLAFYREHIEFQKNIYVAYADHLRAIAKLDNASLMYERGGQLQQALLSAKHTLDWQRVLVLAKKLSEPLDQVAQSLVGPLQQQGRHMEAYELVKEHCQDRKRQFDVLLEGHLYSRAIYEAGLEDDDVSEKIAPALLAYGVQLESSLQADLQLFLDYKQRLLDIRRNQAKSGEGYIDTDVNLKEVDLLSDTTSLHSSQYSGTSRRTGKTFRSSKNRRKHERKLFSLKPGNPFEDIALIDALHNHVTKIAQQQQPVRDTCKALLQLANAADADPLAAALQREFKTLLQAVDAALDEIWTPELRGNGLMADHLTGPNVDYLALQKEQRYALLSPLKRFKPQLIMMDWQHEILQ”, the protein production entry is reported as “failed”.

Take “MDIQNMPREQLGVCAEGNLHSVYLMFNANDNVESQLRPCIANVAQYIYELTDQYSDSAFNGFVAIGANYWDSLYPESRPEMLKPFPAMQEGNREAPAIEYDLFVHLRCDRYDILHLVANEISQMFEDLVELVEEERGFRFMDSRDLTGFVDGTENPKGRHRQEVALVGSEDPEFKGGSYIHVQKYAHNLSKWHRLPLKKQEDIIGRTKQDNIEYESEDKPLTSHIKRVNLKDENGKSIEILRQSMPYGSLKEQGLMFISTCRTPDHFEKMLHSMVFGDGAGNHDHLMHFTSALTGSSFFAPSLDFLMQFDN”: the protein production entry is recorded as “not failed”.

For “MLSNGKCRNNKNQVNGSLSPKMFYMRINDQIVTKYHKILTKKIREVVGTLQQPWESRRIKQAPQQPQETTSATITCDRSHTNYDLCSINGSCNLDLKTGTLTLMDPTSAPLVEKIRPYPKKADNWIMPRIRELTLTSGPLGLPRSCDITHDLPAIVFSAGGYTGSIYHDLMDGFIPLFITANSVYPDRDFIPVVVNAKEWWMPKYIDILGTFSKHKPILLLDKESVATTHCFTSAIVGLITHWPMTIDPTQIPNSKSLVDFHNLLEKAFTTNISTPKTHKPRLMLVSRYGNIGRVILNEQEIKEMLEDVGFEVIIFRPSKTTNLKEAYKLIKSSHGMVGVHGAALTHLLFLRPGSIFVQVVPLGLGWASKPCYESPAKTMKLEYLEYKVNVEESSLIEKYNRDDLVLKDPIAYRGMDWNATKMKVYLKEQDVSLDVNRFRKHMNEAYKKAKIFMDING”, the protein production entry is “failed”.

Take “MTYKELATFLKVLSDSSRLEILDLLSCGELCACDLLAHFQFSQPTLSYHMKALVKTNLVTTRKIGNKHLYQLNHNIFESVINNLSKVHTSNQRCICHNLKTGEC”: the protein production result is “failed”.

Regarding “MSLQFNPIGLFLVALILLGVLGNNNSITISATLLLLMQQTALNKYIPMLEKYGLTIGIIILTIGVLSPIVSGKINLPNLSEILSWKMALAISIGIFVAWLGGRGINLMATQPLIITGLLIGTIIGIAFFGGIPVGPLIAAGIMSLLVGKL”, the protein production entry is on record as “failed”.

“DTPEPYSEQDLWDWLRNSTDLQEPRPRAKRRPIVKTGKFKKMFGWGDFHSNIKTVKLNLLITGKIVDHGNGTFSVYFRHNSTGQGNVSVSLVPPTKIVEFDLAQQTVIDAKDSKSFNCRIEYEKVDKATKNTLCNYDPSKTCYQEQTQSHVSWLCSKPFKVICIYISFYSTDYKLVQKVCPDYNYHSDTPYFPSG”: the protein production result is “failed”.

With “MNRLKKWIRYVPDRIDDGLRYLCGRMSPDVRLVCVVVMLTGFGCLSIYMTVSSIYRIGRHEGEQLQMDHIRRMELYRGINKDSINIKNQVDYGEPKKSGTATGERCNA”, the protein production result was “failed”.

Consider “MDEGCVIAFLVWVDNGECILERQSAPDELNLFDIILVAKEQWRLLLAVPLLLAVLAAGISLAMPDQYTAKALVNIPAPVGAAGGVNIVQSTSLLEQAVEKFQLQRYYAVEDNRSALLALSNVVKTTAGKDGLLEISATDRNAEQAARLGNYLADLTRQHILDGNLTEQSKRYFVLQKRLDVESEQVSQLSRKVAQLVPDQEAALGGEGMQLISGFATLEAQLAFQNVQAAGNSGAVSNLQSSVMQLRASLELANPKVRQMSNEQLAGLRDLYFHRALAAELQRQVSLAKSLADQDVQIVLKASAPLEKSGPKRTLIVLLAGLVGLMLAIALIVCKRQWRELSNRFAKNTAA”, for which the protein production result was “failed”.

In the case of “MSKKIRNTEVDHLFDAILTLENKEECYTFFEDVCTVNELLSISQRYEVAKMLREGKTYLDISNATGASTATISRVNRSLNYGNDGYDMVLERVLKKDE”, the protein production entry is given as “not failed”.

Consider “EIEICPKVTQSIHIEKSDTAADTYGFSLSSVEEDGIRRLYVNSVKETGLASKKGLKAGDEILEINNRAADALNSSMLKDFLSQPSLGLLVRTYPELEEGVE”, for which the protein production entry was “not failed”.

With “MTVPEEAQTLIGKHYRAPDHFLVGREKIREFAVAVKDDHPTHYSEPDAAAAGYPALVAPLTFLAIAGRRVQLEIFTKFNIPINIARVFHRDQKFRFHRPILANDKLYFDTYLDSVIESHGTVLAEIRSEVTDAEGKPVVTSVVTMLGEAAHHEADADATVAA”, the protein production entry is given as “failed”.

For the sequence “MRKLWPLALLLAACGAQDVGAGLDPLRLTATSLPPAYLGEPYSASLAAEGGVRPYSFTLDGKLPEGLSFQGGRLFGVPKEKGSFPLLLTVEDAAKNSRAQRLTLTVSDPPPPRLALVLPPAQVEGPFLLLARVEGREAVGFQMEVRLADLEPDLAGLKALSPAHLLDYDPATRLLRLDMAFAKPVKDREAFRLLLTPQKPLVPRLSPKVVFYDKEGKPLGQPLPRGKPFAELLRLAQAWGREGKALKEDLDGDGKVGEADLRLLAQDYFPKPETPSPEAPGGGEGQASGEEQARLEHHHHHH”, the protein production entry was “failed”.

With “MSNKRKLWQIFGPVLCAFILLIILFLIPWQNGEKSDNALFKASVSQSQTVFKGQSIKQAAFEKNYVPFYGSSELSRMDALHPSVLAYKYKRNYRPFLLGGPGSQSLTHFFTMQETVNQLSNKKAVFIISPQWFTKQGQNPAAFGMYFSQLQAVDWILTAKDSVATRYAARRLLDMPAGTASETTKYALMTLASGQKLSKYQTLYLKARRRMLANEDNFFSSIGMTNNIPKIQKEAGKLPGTYAYDNLRQFANEQGQQGTTNNKFGISNGFFDKKLNNKHLKHLKNSQRDFDYTQSPEYADFELVLNELAHEHVNVLFIIPPVNEKWAKYTGLSQTMYQECVAKITKQLTSQGFNNIANLSKDGGKKFFMEDTIHLGWNGWLKVDQYVKPFMEEKNHPVNYKLNSYYFTKAWGNKTNVKMPNVKSKAAVDIKKN”, the protein production result is “failed”.

Take “MTRAPPRRCTSPMTPTAPSPLVWRDDGLPQSSLYGDVYFSSVDGLAETRAVFLAGCGLPERFAERRDFVVGELGFGSGLNIAALLDLWRREKPPGGRLHIFSIEAHPLSRDEAARILAHWPELGEAAQVLLDHWPGRARGFHRVDLPGFDAVLDLAVMDVVEALEAWDGLADAWFLDGFSPALNPAMWRDEVLAAVGARSAPGARAATFTVAGAVRRGLSAAGFEIAKRPGFGRKRERLEAWRPGVRPVAQRPETLAIIGGGIAGAALARAARAAGLEVTVIDDADAVAASGNPAALVTPALDAGGGPRAALYAQALSRAVTLYEAQPDAVLAREVLQLAAGERDPARFATVADQDLFEPGDMRTLEAEDTRARLETPTPALAMAGARVIAPAEVTAAWAGPVVRRRVAKAERDGEGWRLLDAAGEIIARADRLALAGGAAGADLLAEAPLRPVRGQASWTRGHGAPATAFGGYAIPTREGLLFGATHDRDDTQTNVRSEDHARNLATLAKGLPALAARLAGSTFEGRAAIRATTPDRLPLADLREDGVIVLTGLGSRGFCLAPLLAEHLVARLLDVPSPLPRQLSHLLKLTRFDSPVTRSRL”: the protein production result is listed as “failed”.

“MNISLVFPPFHLQSLYNLPPLGLISLATVLGEAGHRAVIRDLVLALRQGSLGMGKELYGEAARMILRDDPDLVGFSAQCTTFPAVVRIARLLKEQKPDLRIVAGGHNVSFLDVPTLERFPWIDAVVRGEGEVTFRELAASFAVGNDPAEVAGVTWRRGTEIVRNPDRELIADLDTLPLPDYTLVPPLASYRDACGIPRSIAILEVGRGCPHRCVYCSESVMWRRRTRTFSIPRLIREMEELHGRFGAECLVLAYDQFTADRRFVEEFCNRVIDARLNRVPWYCISRLDSLDRPLLDLMREAGCESMCYGIDSGSRRTLAFIGKEIDEGILYQRVRETTEAGMVPTLSFVIGFPEEEREDIDQTLFLALKAGVQGNSAPLVQLPTVLAGTELHRRYTGRLVREVDTYFSLGLEFDHGRRLADDERLIDADPFLFSSFYNLPCAGVPLAELDRIARWFPLILNGYPKSFILLSLALGRPPSNLFREILSRLEEDGWREDDPTAETAFLERFPCHAEGLMAGSASWPHFAEILTYETLALRATHRGPPRADGAGPLKGDPAGECRPVLREEVTVSEFRRNLPAIIADLKSGIFRESYPPEPTLLIFYPSGERLEVMEINRFGKDFLLLCNGLATCEEIAATLYGEYGDAMDSGAFSEECKDALTVFTGMGLVRDGAAPAP”: the protein production entry is on record as “failed”.

“ILVKNLPQDSNCQEVHDLLKDYDLKYCYVDRNKRTAFVTLLNGEQAQNAIQMFHQYSFRGKDLIVQLQPTDALLC”: the protein production result is listed as “not failed”.

Consider “MPSTVSSSRLGLAGLCILLAGQLLPMIDFSIVNVALDALAHSLGASETELELIVAVYGVAFAVCLAMGGRLGDNYGRRRLFVLGVALFAVASLLCGLAGSVWLLLVARALQGVGAALVVPQILATLHVSLSGHAHSRALAAYGAIGGLAFVVGQVLGGFLVSADIGGLGWRSVFLINLPICLGILLCSRRWVPETRAEHAARVDAPGTLLLAALILCLLLPLALGPSLHWSWPCALLLAAAVPLLAWLWRTELRQERRQAWPLLPPSLLRLPSIRFGLLLAILFFACWSGFMFALALALQAGAGLSPVQAGNAFIALGASYFVSALLTARVAARIGPVRLLLLGCVIQMCGLLGLMLTLQRVWPQPGILNLAPATLVIGFGQAFIVSSFFRIGLSEVPAAQAGAGSAMLATVQQASLGLGSALLGAVFAHRLERHGDYLEATQTTLAVEFVLMTLLLGATCLFYLRRVRTVPLRCDSPGN”, for which the protein production result is reported as “failed”.

On to “QEGIISLDTEGRVVLMNPKAEEMTGRSQNESCGLPIEDVFILWSPLQDKNQLVAINQCLAEGRHTLLPEGSQLLSSQGERQEIRCSASPIRDRDNLLTGAVVVFQDVTRARHEQRELQYQANHDMLTGLINRRRLEERLNQAISQLGQDEQHILCYVDLDYFKDVNDSAG”, for which the protein production result is on record as “failed”.
